Test [1] concerns the target A/Panama/2007/1999 (H3N2) hemagglutinin ectodomain (influenza A virus A/Panama/2007/1999 (H3N2)). Put plainly: ITC. In general terms: ITC needs no label: the signal is the heat of the interaction.
Test [2] has as its target A/Perth/16/2009 (H3N2) hemagglutinin ectodomain (influenza A virus A/Perth/16/2009 (H3N2)). Put plainly: ITC.
Test [3] deals with A/Brisbane/10/2007 (H3N2) hemagglutinin ectodomain (influenza A virus A/Brisbane/10/2007 (H3N2)). Kind of test: ITC.
Test [4] concerns the target A/Panama/2007/1999 (H3N2) hemagglutinin ectodomain (influenza A virus A/Panama/2007/1999 (H3N2)). Put plainly: BLI. Background: BLI is a label-free optical method that tracks binding on a fibre tip over time.
Test [5] concerns the target A/Perth/16/2009 (H3N2) hemagglutinin ectodomain (influenza A virus A/Perth/16/2009 (H3N2)). Put plainly: BLI.
In test [6] the target is A/Brisbane/10/2007 (H3N2) hemagglutinin ectodomain (influenza A virus A/Brisbane/10/2007 (H3N2)). Kind of test: BLI.
Test [7] concerns the target A/Perth/16/2009 (H3N2) hemagglutinin ectodomain (influenza A virus A/Perth/16/2009 (H3N2)). Kind of test: negative-stain EM, single-particle 3D reconstruction.
The target in test [8] is A/Solomon Islands/3/2006 (H1N1) hemagglutinin ectodomain (influenza A virus A/Solomon Islands/3/2006 (H1N1)). Described as above.
Test [9] addresses A/Texas/36/1991 (H1N1) hemagglutinin ectodomain (influenza A virus A/Texas/36/1991 (H1N1)).

Broadly, the Kd is the constant that tells how readily two partners part at equilibrium. Read a low Kd as tighter binding. For orientation: stoichiometry N means the number of molecules, sites or subunits per partner or assembly.

With “C05 Fab (recombinant, for binding studies)”, the Kd in [1] was 225 nM; in test [2] it was 26 nM; in test [3] it was 10000 nM; in [4], 720 nM; in test [5] it was 18 nM; in [6] it was more than 5000 nM.

Turning to C05 Fab (Lys-C digestion of IgG), the stoichiometry N in test [7] and in test [8] was 3 throughout.

Turning to C05 IgG (antibody), the MIC, hemagglutination inhibition (HAI) in test [9] was more than 100 µg/mL.
